According to paper doi:10.1101/2022.05.13.491786:

Columns and labels:
[1] = target: inactive human 80S ribosome (human (endogenous in MCF7)) (UniProt P18124); assay: cryo-EM structure
[2] = target: large 60S ribosomal subunit (human (endogenous in MCF7)) (UniProt P30050); assay: co-sedimentation
[3] = target: large 60S ribosomal subunit (human (endogenous in MCF7)) (UniProt P30050); assay: cryo-EM structure

## IFRD2 (from UniProt Q12894 1-442) (natural protein)
[1]
  percent of 80S ribosomes with IFRD2 (arsenite-treated cells): 13%
  percent of 80S ribosomes with IFRD2 (untreated cells): 16.9%

## LYAR (from UniProt Q9NX58 1-379) (natural protein)
[1]
  percent of 80S ribosomes with LYAR (arsenite-treated cells): 15.5%
  percent of 80S ribosomes with LYAR (untreated cells): 13.2%

## eIF6 (from UniProt P56537 1-245) (natural protein)
[2]
  stoichiometry N (eIF6 : large subunit proteins): 1
[3]
  percent of 60S subunits with eIF6 (untreated cells): 30%
